Experimental data taken from patent US20250243281A1 (IMMUNITAS THERAPEUTICS, published 2025).
Where two headings read alike, the source gives them in different places.

T1: hCLEC2D (human, UniProt Q9UHP7 1-191)
T1 construct: Overexpressed on HEK293 or K562 cells; the same id is used for endogenous CLEC2D on NALM6 and Raji cells; also called LLT1
T1 sequence: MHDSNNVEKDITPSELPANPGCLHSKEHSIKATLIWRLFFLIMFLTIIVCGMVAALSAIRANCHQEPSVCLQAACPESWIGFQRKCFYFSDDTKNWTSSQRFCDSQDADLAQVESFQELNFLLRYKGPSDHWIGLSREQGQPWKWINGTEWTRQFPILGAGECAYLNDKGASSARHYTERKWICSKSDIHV

T2: hKLRF2 (human, UniProt D3W0D1 1-207)
T2 construct: Overexpressed on HEK293 cells
T2 sequence: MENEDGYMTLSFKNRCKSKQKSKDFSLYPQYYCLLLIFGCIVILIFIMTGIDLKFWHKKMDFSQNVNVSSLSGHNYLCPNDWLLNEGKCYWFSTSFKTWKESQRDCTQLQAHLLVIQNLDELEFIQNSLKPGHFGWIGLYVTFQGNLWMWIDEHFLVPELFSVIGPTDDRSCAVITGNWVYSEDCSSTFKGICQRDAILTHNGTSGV

T3: hCLEC12B (human, UniProt Q2HXU8 1-276)
T3 construct: Overexpressed on HEK293 cells
T3 sequence: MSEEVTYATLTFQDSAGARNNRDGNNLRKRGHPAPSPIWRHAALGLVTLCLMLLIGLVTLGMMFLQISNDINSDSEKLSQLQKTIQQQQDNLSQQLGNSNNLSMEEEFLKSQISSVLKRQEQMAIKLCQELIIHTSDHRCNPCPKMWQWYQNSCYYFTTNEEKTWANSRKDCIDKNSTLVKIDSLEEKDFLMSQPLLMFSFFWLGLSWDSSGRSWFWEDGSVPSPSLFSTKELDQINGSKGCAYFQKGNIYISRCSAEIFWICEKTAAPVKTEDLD

T4: hKLRF1 (human, UniProt Q9NZS2 1-231)
T4 construct: Overexpressed on HEK293 cells
T4 sequence: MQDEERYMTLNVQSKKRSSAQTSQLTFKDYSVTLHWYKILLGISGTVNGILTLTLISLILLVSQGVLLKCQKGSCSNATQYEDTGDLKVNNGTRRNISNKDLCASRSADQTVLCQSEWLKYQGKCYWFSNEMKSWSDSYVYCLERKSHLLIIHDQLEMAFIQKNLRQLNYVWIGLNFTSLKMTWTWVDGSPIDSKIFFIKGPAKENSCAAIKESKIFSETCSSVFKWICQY


Key:
hCLEC2D [1] = molecular target: T1, hCLEC2D; assay: flow cytometry; 100 nM antibody on HEK293 cells expressing CLEC2D; Alexa Fluor 647 anti-human IgG; MFI
Procedure: (§1) For the antibody binding assay, all cell lines were washed in phosphate-buffered saline with 0.1% bovine serum albumin (PBSA) and seeded in a 96 well plate at a density of 4×10⁴ cells per well. Washed cells were resuspended in 100 nM of antibody (a saturating concentration to measure maximum binding on cells) and incubated at room temperature for 30 minutes. […] Cells were analyzed by flow cytometry with a Thermo Fisher Attune flow cytometer.
(§2) Data were analyzed using FlowJo software. MFI for each sample was calculated and exported into Graphpad Prism.

hKLRF2 [2] = molecular target: T2, hKLRF2; assay: flow cytometry, HEK293 transfectants, 100 nM antibody;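 also: antibody applied at a saturating level and incubated with cells for 30 min at room temperature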
Procedure: as §1, §2

hCLEC12B [3] = molecular target: T3, hCLEC12B; assay: as above
Procedure: as §1, §2

hCLEC2D [4] = molecular target: T1, hCLEC2D; assay: as above
Procedure: as §1, §2

hKLRF1 [5] = molecular target: T4, hKLRF1; assay: as above
Procedure: as §1, §2

hKLRF1 [6] = molecular target: T4, hKLRF1; assay: flow cytometry; 100 nM antibody on HEK293 cells expressing KLRF1; Alexa Fluor 647 anti-human IgG; MFI
Procedure: as §1, §2

hKLRF2 [7] = molecular target: T2, hKLRF2; assay: flow cytometry; 100 nM antibody on HEK293 cells expressing KLRF2; Alexa Fluor 647 anti-human IgG; MFI
Procedure: as §1, §2

hCLEC12B [8] = molecular target: T3, hCLEC12B; assay: flow cytometry; 100 nM antibody on HEK293 cells expressing CLEC12B; Alexa Fluor 647 anti-human IgG; MFI
Procedure: as §1, §2

hKLRF1 [9] = molecular target: T4, hKLRF1; assay: flow cytometry; 100 nM antibody on HEK293 cells expressing KLRF1; Alexa Fluor 647 anti-human IgG; MFI; remark: listed apart in the source
Procedure: as §1, §2

hCLEC2D [10] = molecular target: T1, hCLEC2D; assay: flow cytometry; 100 nM antibody on HEK293 cells expressing CLEC2D; Alexa Fluor 647 anti-human IgG; MFI; remark: listed apart in the source
Procedure: as §1, §2

hKLRF2 [11] = molecular target: T2, hKLRF2; assay: flow cytometry; 100 nM antibody on HEK293 cells expressing KLRF2; Alexa Fluor 647 anti-human IgG; MFI; remark: listed apart in the source
Procedure: as §1, §2

Binder	binding result (hCLEC2D [1])	% of CD161 binding (hKLRF2 [2]) [%]	% of CD161 binding (hCLEC12B [3]) [%]	% of CD161 binding (hCLEC2D [4]) [%]	% of CD161 binding (hKLRF1 [5]) [%]	binding result (hKLRF1 [6])	binding result (hKLRF2 [7])	binding result (hCLEC12B [8])	binding result (hKLRF1 [9])	binding result (hCLEC2D [10])	binding result (hKLRF2 [11])
Ab3 (antibody, human IgG1, V domains shown, IgG purified from yeast culture) VH: EVQLLESGGGLVQPGGSLRLSCAASGFTFERYAMSWVRQAPGKGLEWVSAISAAGGTTYYADSVKGRFTISRDNSKNTLYLQMNSLRAEDTAVYYCAKPLDSSQWADFDLWGRGTLVTVSS VL: DIQLTQSPSSVSASVGDRVTITCRASQDISSWLAWYQQKPGKAPKFLIYAASALQSGVPSRFSGSGSGTDFTLTISSLQPEDFATYYCQQALVLPITFGGGTKVEIK	no binding (tested: 100 nM)	-0.007	-0.042	0.832	0.011	no binding (tested: 100 nM)					
Ab10 (antibody, human IgG1, V domains shown, IgG purified from yeast culture) VH: EVQLLESGGGLVQPGGSLRLSCAASGFTFSQYAMSWVRQAPGKGLEWVSAISAVGGSTYYADSVKGRFTISRDNSKNTLYLQMNSLRAEDTAVYYCAKPLDSSQWADFDLWGRGTLVTVSS VL: DIQLTQSPSSVSASVGDRVTITCRASQDISSWLAWYQQKPGKAPKLLIYAASALQSGVPSRFSGSGSGTDFTLTISSLQPEDFATYYCQQADVLPITFGGGTKVEIK	no binding (tested: 100 nM)	0.004	-0.004	0.935	0.046	no binding (tested: 100 nM)	no binding (tested: 100 nM)				
Ab11 (antibody, human IgG1, V domains shown, IgG purified from yeast culture) VH: EVQLLESGGGLVQPGGSLRLSCAASGFTFSQYAMSWVRQAPGKGLEWVSAISAAGGTTYYADSVKGRFTISRDNSKNTLYLQMNSLRAEDTAVYYCAKPLDSSQWADFDLWGRGTLVTVSS VL: DIQLTQSPSSVSASVGDRVTITCRASQGIYSWLAWYQQKPGKAPKLLIYAASSLQSGVPSRFSGSGSGTDFTLTISSLQPEDFATYYCQQASDLPITFGGGTKVEIK	no binding (tested: 100 nM)	0.021	-0.003	0.785	0.024	no binding (tested: 100 nM)	no binding (tested: 100 nM)				
Ab18 (antibody, human IgG1, V domains shown, IgG purified from yeast culture) VH: QVQLVESGGGLVKPGGSLRLSCAASGFTFSQYYMSWIRQAPGKGLEWVSYISPSGATIAYADSVKGRFTISRDNAKNSLYLQMNSLRAEDTAVYYCARSLMATGTHLYFDLWGRGTLVTVSS VL: DIQLTQSPSSVSASVGDRVTITCRASQGISSWLAWYQQKPGKAPKLLIYAAESLQSGVPSRFSGSGSGTDFTLTISSLQPEDFATYYCQQVTSQPPYTFGGGTKVEIK		0.101	0.169	0.865	0.121			no binding (tested: 100 nM)	no binding (tested: 100 nM)	no binding (tested: 100 nM)	no binding (tested: 100 nM)
Ab14 (antibody, human IgG1, V domains shown, IgG purified from yeast culture) VH: QVQLVESGGGLVKPGGSLRLSCAASGFTFGQYYMSWIRQAPGKGLEWVSYISPSGATIAYADSVKGRFTISRDNAKNSLYLQMNSLRAEDTAVYYCARSLMSTGTHLYFDLWGRGTLVTVSS VL: DIQLTQSPSSVSASVGDRVTITCRASQGISDWLAWYQQKPGKAPKLLIYAASSLQSGVPSRFSGSGSGTDFTLTISSLQPEDFATYYCQQVTSFPPYTFGGGTKVEIK		0.054	0.064	1.02	0.09			no binding (tested: 100 nM)	no binding (tested: 100 nM)	no binding (tested: 100 nM)	no binding (tested: 100 nM)

The remaining lines, values ahead:

binding result (hCLEC2D [1])	% of CD161 binding (hKLRF2 [2]) [%]	% of CD161 binding (hCLEC12B [3]) [%]	% of CD161 binding (hCLEC2D [4]) [%]	% of CD161 binding (hKLRF1 [5]) [%]	binding result (hKLRF1 [6])	binding result (hKLRF2 [7])	binding result (hCLEC12B [8])	binding result (hKLRF1 [9])	binding result (hCLEC2D [10])	binding result (hKLRF2 [11])	Binder
	0.067	0.071	0.935	0.114			no binding (tested: 100 nM)	no binding (tested: 100 nM)	no binding (tested: 100 nM)	no binding (tested: 100 nM)	Ab15 (antibody, human IgG1, V domains shown, IgG purified from yeast culture) VH: QVQLVESGGGLVKPGGSLRLSCAASGFTFPQYYMSWIRQAPGKGLEWVSYISPSGATIYYADSVKGRFTISRDNAKNSLYLQMNSLRAEDTAVYYCARSLMSTGTHLYFDLWGRGTLVTVSS VL: DIQLTQSPSSVSASVGDRVTITCRASQGISSWLAWYQQKPGKAPKLLIYAASSLQSGVPSRFSGSGSGTDFTLTISSLQPEDFATYYCQQVTSTPPYTFGGGTKVEIK
	0.048	0.088	0.865	0.061			no binding (tested: 100 nM)	no binding (tested: 100 nM)	no binding (tested: 100 nM)	no binding (tested: 100 nM)	Ab16 (antibody, human IgG1, V domains shown, IgG purified from yeast culture) VH: QVQLVESGGGLVKPGGSLRLSCAASGFTFSDYYMSWIRQAPGKGLEWVSYISPSGATIAYADSVKGRFTISRDNSKNTLYLQMNSLRAEDTAVYYCARSLMATGTHLYFDLWGRGTLVTVSS VL: DIQLTQSPSSVSASVGDRVTITCRASQGISSWLAWYQQKPGKAPKLLIYAASGLQSGVPSRFSGSGSGTDFTLTISSLQPEDFATYYCQQSTSFPPYTFGGGTKVEIK
	0.055	0.061	1.16	0.065			no binding (tested: 100 nM)	no binding (tested: 100 nM)	no binding (tested: 100 nM)	no binding (tested: 100 nM)	Ab12 (antibody, human IgG1, V domains shown, IgG purified from yeast culture) VH: QVQLVESGGGLVKPGGSLRLSCAASGFTFAQYYMSWIRQAPGKGLEWVSYISPSGSTIAYADSVKGRFTISRDNAKNSLYLQMNSLRAEDTAVYYCARSLMATGTHLYFDLWGRGTLVTVSS VL: DIQLTQSPSSVSASVGDRVTITCRASQDISSWLAWYQQKPGKAPKLLIYAASSLQSGVPSRFSGSGSGTDFTLTISSLQPEDFATYYCQQVTSFPPYTFGGGTKVEIK
	0.089	0.175	0.907	0.106			no binding (tested: 100 nM)	no binding (tested: 100 nM)	no binding (tested: 100 nM)	no binding (tested: 100 nM)	Ab13 (antibody, human IgG1, V domains shown, IgG purified from yeast culture) VH: QVQLVESGGGLVKPGGSLRLSCAASGFTFANYYMSWIRQAPGKGLEWVSYISPSGATIAYADSVKGRFTISRDNAKNSLYLQMNSLRAEDTAVYYCARSLMATGTHLYFDLWGRGTLVTVSS VL: DIQLTQSPSSVSASVGDRVTITCRASSGISSWLAWYQQKPGKAPKLLIYAASELQSGVPSRFSGSGSGTDFTLTISSLQPEDFATYYCQQATSFPPYTFGGGTKVEIK
